Laboratory results from the nanobody polyreactivity screen of Harvey et al. (2022).

Assay: yeast display, Sf9 membrane polyspecificity reagent, FACS + sequencing; frameworks hold sequencing errors
Procedure, shortened: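 A nanobody's polyreactivity label depends on the gate it was sorted from. Yeast display cells were stained with 10% biotinylated, detergent-solubilized Sf9 membrane reagent for 1 hour at 4 °C, enriched on streptavidin microbeads and sorted by FACS. The low and high (top ~1%) gates were set on anti-HA fluorescence for expression and streptavidin fluorescence for reagent binding.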

Sequence	polyreactivity (PSR sort gate)
EEELVESGGGLVQAGGSLRLSCAASGSTFLVYAMGWYRQAPGKERELVAVITYSTVRTYYADSVKGRFTISRDNAKNTVYLQMNSLKPEDTAVYYCNADIEFAVLGQGMDYWGQGTQVTVSS	low polyreactivity
EVQLVESGAGLLQAGGSLRISCAASGITLAYYAMGGYRQAPGTERELVAVINIGVSTDYADSVKGRFTISRDNAKNTVYVQMTSLKPEDTAVYYSAAGWGRRWPQYNYWGQGTQVTVSS	high polyreactivity
EVQLVESGGGLVQAGGSLRLSCAASGRTFIWNAMGWYRQAPGKERELVAAITRNGDSTYYADSVKGRFTISRDNAKNTVYLQMNSLKPEDTAVYYCAAYSRVFVYRTVGNYGWMNYWGQGTQVTVSS	high polyreactivity
EVQLVETGGGLVQAGGSLRLSCAPSGFNFGVYAMGCYRQEPGKERELFAAISTTVGSTYYADSVKWRFTISRDNEKNTVYLQMTSLKPEDTAVYYCATGWSNCGQGTQVTVSS	low polyreactivity
HAQLQDSGGGLVQAGGSLRLSCAASGNISSEYYMGWGRQAPGSGREFVAAIDYGGTTNYADNVKGRFTISRDNAKNTVYLQMNSLRPEDTAVYYCAASCDTIGLFAYWGQGTQVTVIS	high polyreactivity
HAQQQESGGGLVQAGGSLRRSCAASGSIFRFSGRGWYRLAPGKERELVASIGFGSITYYADRVKGRFTISRDNANNTVYLQMNSLKPEDTAVYYCAVQVQDESWLDYWGQGTQVTVSC	low polyreactivity
HDQHVESGGGLVQAGGSLRLSCAASGRIYGSTMGWYRQAPGKERELVAAITRNGGSTYYADSVKGRFTISRDNSKNTVYLQMNSVKPEDTEVYYCAARNAFGTYYYWGQGTQVNVSS	high polyreactivity
HDQLVESGGGLVQAGGSLRLSCAASGFTFYRNAMGWYRQAPGQERELVAAITRGGSTTYADSVKGRFTISRANAKNTVYLQMISLKPDDTAVYYSAKVARADVPGYYKYYYWGQGTQVTVSS	high polyreactivity
HVKLVESGGGLVQAGGSLRLSCAASGSIFEPYVMGWYRQAPGKERELVAAIRQTRGSTYYADSVKGRFTISRDNAKNTVYLQMNSLKPEDTAVYYCNAEQNPSGLYDYRGVEGEMGYWGQGTQVTVSS	low polyreactivity
HVQHVESGGGLVQAGGSLRLSCAASGFTFFYYTMGWYRQAPGKERELVAAISKGGGSTFYADSVKGRFTISRDNAKNTVYLQMNSLKPEDTAVYYCAASYVRGYDYWGQGTQVTVSS	high polyreactivity
HVQHVESGGGLVQAGGSLRLSCADSGNTFSDNAMGLYRQAPGKVRELVAAISTSGGSTYYADSVKGRFTISRDNAKNTVYLQMNSLNPEDTADYYFAAQFTVLWYEYYYWVQGTQVTVSS	high polyreactivity
HVQHVESGGGLVQAGGSLRVSCAASGSIFYTNVMGWYRQAPGKERELVARIDSGGSTNYADSVKGRFTISRDNAKNTVYLQMYSLKPEDTAVYYCAADWYIYDYWGQGTQVTVSS	low polyreactivity
HVQLEESGGGLVQAGGSLRLSCAASGITFYKYVMGSYRQAPGKERELVAAITYSGGSRYYADSVKGRFTISRDNAKNTVYLPMNSLKPEDSAVYYWNAYYYWYFPYTYDYWGQGTQVTVSS	high polyreactivity
HVQLLESGGGLVQAGGSLRLSCAASGFTFRSYAMGWYRQAPGKERELVAAISGSGGSTYYADSVKGRFTISRDNAKNTVYLQMNSLKPEVTAVYYCAARRSKNSALGGRVSIGDYWGQGTQVTVSS	high polyreactivity
HVQLLESGGGLVQAGGSLRLSCAASGITFQFYPKGWYRQAPGKERELVAAISYSGGSTYYADSVKGRFTISRDNAKNTVYLQMNSLKAADTAVYYCAAVSYSSRGNYWGQGTQVTVSS	high polyreactivity
HVQLQERGGGLVQAGGSLRLSCAASGSIFQATYMGWYRQAPGKEREFVASITYGSITNYADSVKGRFTIGRDNAKDTLYLQMNSLKPEDTAVYYCAVDRHYIPAFHYWGQCTQVTVSS	low polyreactivity
HVQLQESGGGLVQACGSLRLSCAASGTIFKVVDMGLYRQSPAKEREFVATIGEGGNTYYADSVKGRFTISRDNAKNTVYLQMNSLKPEDTAVYFYEVVMGTSYRYTYWGQGTHVTVSS	low polyreactivity
HVQLQESGGGLVQAGGSLRLSCAASGNISYSRNMGWYRQAPGKERELVAAIDRGAITYYADSVKGRFTISRDNAKNTVYLQRYSLKPEDTAVYYCAAEYHDRWDHRYWGQGTQVTVSS	high polyreactivity
HVQLQESGGGLVQAGGSLRLSCAASGSIFQATYMGWYRQAPGKEREFVASITYGSITNYADSVKGRFTIGRDNAKETLYLQMNSLKPEDTAVYYCAVDRHYIPAFHYWGQGTQVTVSS	low polyreactivity
HVQLVDSGGGIVQAGGSLRLSCAASGSTFYGNAMGWYRQAPGKEMEFVAAISRGGGSTYYADSVKGRFTISRDNAKNTVYVQMNLLKTEDTADFYCAATRYLHPWYYQYYYCGQGTQVTVSS	low polyreactivity
HVQLVDSGGGLVQAGGSLRLSCAASGRTFSHNAMGWYRQAPGKDRELVATITYGAGRTSYADSVKGRFTISRDNAKNTLYLQMNSLKPEDTAVYYCNADYFTYRGGEYRRYEYWGQGTQVTVST	high polyreactivity
HVQLVESAGGLVQAGGSLRLSCAASGSTIYGYAMGLYRQAPGKERELVAAITGSGGSTYYADSVKGRFTISRDNAKNTVYLQMNSLKPEDTAVYYCNAVRRYGLEYNYWGQGTQVTVSS	high polyreactivity

Sequence	polyreactivity (PSR sort gate)
HVQLVESGGGLVQAGGCLRLSCAASGRICIFYAMGWYRQAPGKERELVAAISSGPSTTYADSVKGRFTISRDNAKNTVYLQMNSLNPEDTAVYSCARRDGTTQALFGYDYWGQGTQVTVSS	low polyreactivity
HVQLVESGGGLVQAGGSLPLSCAASGLTFYYNAMGWYRQAPGNERELVAAISFSGGRTYYADSVKGRFTISRDNAKNTVYLQMNSLKPEDTAVYYCNTVGKQHLDYDYWGQGTQVTVSS	high polyreactivity
HVQLVESGGGLVQAGGSLRLICAASGRSFSPYAMGWYRLAPGKERELVAAITNGDSTNYADSVKGRFTISRDNAKNTVYLLMNSLKPEDTAVYYCNAAAEISSFDYDYWGQGTQVTVSS	low polyreactivity
HVQLVESGGGLVQAGGSLRLSCAASGFIFVSYAMGWYRQAPGKERELVAAITWSTTSTYYADSVKGRFTISRDNAKNTVYLQMNSLKPEDTAVYYCAKYNFQYKHDYWGQGTQVTVSS	low polyreactivity
HVQLVESGGGLVQAGGSLRLSCAASGFIFWRYAMGWYRQAPGKERELVAAISVSGTRTYYADSVKGRFTISRDNAKNTVYLQMNSLKPEDTAVYYCAADRYYGEDYWGQGTQVTVSS	high polyreactivity
HVQLVESGGGLVQAGGSLRLSCAASGFIGIYAMGWYRQAPGKERELVAAITTSGGRTYYADSVKGRFTISRDNAKNTVYLQMNSLKPEDTAVYYCAAPWRLFSLYDYWGQGTQVTVSS	low polyreactivity
HVQLVESGGGLVQAGGSLRLSCAASGFTFDAYAMGWYRQAPGKERELVAAISFSGGSTYYADSVKGRFTISRDNAKNTVYLQMNSLKPEDTAVYYCAAYSYTRTYGRHNYWGQGTQVTVSS	high polyreactivity
HVQLVESGGGLVQAGGSLRLSCAASGITLTIYVMGGYRQAPGKERELVAAISTSGGSTYYADSVKGRFTISRDNAKNTDYLQMNSLKPEDTAVYYCNATPLRRYYGRYLMDYWGQGTQVTVSS	high polyreactivity
HVQLVESGGGLVQAGGSLRLSCAASGLTFTRYTMGWSRQAPGKERELVAAITSSGGSTYYADSVKGRFTISRDNAKNTVYLQMNSLKPEDTAVYDCAARTGYGYGARRTLKSRYDYWGQGTQVTVSS	high polyreactivity
HVQLVESGGGLVQAGGSLRLSCAASGRIFDWNAMGWYRPAPGKEWELVAAISSRSGGTYYADSVKGRFTISRDNAKNTVYFQMNSLKPEDTAVYYCAADYYWYGRFEYGYWGQGTQVTVSS	low polyreactivity
HVQLVESGGGLVQAGGSLRLSCAASGRIFGYNAMGWYRQAPGKERELVAAISYSGGSTYYADSVKGRFTISRDNAKNTVYLQMYSLKPEDTAVYYGAARGHYASLFGGYFHYNYWGQGPQVTVSS	high polyreactivity
HVQLVESGGGLVQAGGSLRLSCAASGRIFYYNAMGWYRQAPGKERELVAVITWRGGTTYYADSVKGRFTTSRDTAKNTVYLQMNSLKPEDTAVYYCAADTGAFDGYYRQPRIRFDYWGQGTQVTVSS	high polyreactivity
HVQLVESGGGLVQAGGSLRLSCAASGRTFGAYAMGWYRQAPGKERELVAAISKSGGRTYYADSVKGRFTISRDNAKNTVYLQMNSLKPEDSAVYYCNARGFRGEYDYWGQGTQVTVSS	high polyreactivity
HVQLVESGGGLVQAGGSLRLSCAASGRTFGIYAMGWYRHAPGKQRELVAAISKIGTRTYYADSVKGRFTISRDNAKNTVYLQMNSLNPEDTAVYYCAAYPVDAVYQAYRYPYYDEMDYWGQGTQVTVSS	low polyreactivity
HVQLVESGGGLVQAGGSLRLSCAASGRTFPYYAMGWYRQAPGKERELVAGITSNAGSTYYADSVKGRFTISRDNAKNTVYLLMNSLKPEDTAVYYCAKTKAGRWTTFKFGYWGQGTQVTVSS	high polyreactivity
HVQLVESGGGLVQAGGSLRLSCAASGRTFVNYTMGWYRQAPGKVRELVAAIRYRDGSTYYADSVKGRFTISRDNAKKTVYLQMNSLKPEDTAVYYCNNRITQVGDYIYDYWRQGTQVTVSS	low polyreactivity
HVQLVESGGGLVQAGGSLRLSCAASGSIFAKNAMGWYREAPGKERELVAGIDFSGGSTYYADSVKGRFTISRDNAKNTVYLQMNSLKPEDTAVYYCAADWAYKYELDYWGQGTQVTVSS	low polyreactivity
HVQLVESGGGLVQAGGSLRLSCAASGSIFDDYAMGWYRQAPGKERELVAAISSSGTSTYYADSVKGRFTISRDNAKNTVYLQMNSLKPEDTAVYYCAARSAILKSGYLMDYWGQGTQVTVSS	low polyreactivity
HVQLVESGGGLVQAGGSLRLSCAASGSIFFVYDMGWYRQAPGKERELVAAITWSGGRTTYADSVKGRFTISRDNAKNTVYLQMNSLKPVDTAVYYCAAGRVRLRILWGKRGWYDYWGQGTQVTVSS	low polyreactivity
HVQLVESGGGLVQAGGSLRLSCAASGSIFILYAMGWSRQAPGKERELLASISSSGGRTYYADSVKGRFTISRDNAKNTVYLQMNSLKPEDTAVYYCNAVGRYWSYGTIYDYWGHGTQVTVSS	high polyreactivity
HVQLVESGGGLVQAGGSLRLSCAASGSIFVPYTMGWSRQAPGKERELVAAINSSDDSKFYADSVKGRFTISRDNAKNPVYLQMNSLKPEDTAVYYCAASYYYTIGPYFRKFDWGQGTQVTVSS	low polyreactivity
